From the supplement of paper PMC9170038

Experiments:
Conditions in all cases: FMN input: 0 or 200 uM; Eterna round: R93 (includes R88 designs)
MS2 coat protein [1] = test: apparent KD of MS2 coat protein, switch ON state; designed switch direction (-1 OFF switch, 1 ON switch): 1; higher = weaker reporter binding
Outline: (§1)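 Values are apparent KD, taken as the median for each design of fits to normalised binding curves from individual clusters. The designed RNA switches were transcribed on-chip from Illumina sequencing clusters and exposed to SNAP-549-labelled MS2 coat protein at twofold increasing amounts from 0.7 or 1.5 nM to 3 µM. Titration used 100 mM Tris-HCl pH 7.5, 80 mM KCl and 4 mM MgCl2, without or with constant ligand.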

MS2 coat protein [2] = test: apparent KD of MS2 coat protein, switch OFF state (with FMN for OFF switches, without FMN for ON switches); designed switch direction (-1 OFF switch, 1 ON switch): 1; higher = weaker reporter binding
Outline: as §1

MS2 coat protein [3] = test: apparent KD of MS2 coat protein, switch OFF state (with FMN for OFF switches, without FMN for ON switches); designed switch direction (-1 OFF switch, 1 ON switch): -1; higher = weaker reporter binding
Outline: as §1

MS2 coat protein [4] = test: apparent KD of MS2 coat protein, switch ON state; designed switch direction (-1 OFF switch, 1 ON switch): -1; higher = weaker reporter binding
Outline: as §1

Sequence | apparent KD of MS2 coat protein (MS2 coat protein [1]) [nM] | apparent KD of MS2 coat protein (MS2 coat protein [2]) [nM] | apparent KD of MS2 coat protein (MS2 coat protein [3]) [nM] | apparent KD of MS2 coat protein (MS2 coat protein [4]) [nM]
GGAGCCGGCACUGAGGAUAUUCAUAUUAAAACAUGAGGAUCACCCAUGUAGGCCAGAAGGCCUUGGGAGAAGGCAGGUCGACUCG [Diqureveri] | 20.8 | 288 |  | 
AGGCAACAUGAGGAUCACCCAUGUCGCAACAAUCAAGGAUAUGGGAGAAAUAAGAAAAUACCAGAAGGUGAAAUAA [Telelabe] | 60.7 | 92 |  | 
AAAAAACAUGAGGAUCACCCAUGUAAUAAAACGUCAGGAUAUUGAUUUUAUUAUUUAUUGCGAGAAGGGACAAAAA [Same State 1 - Omei 3] | 20.2 | 28.6 |  | 
GGGAGACAUGAGGAUCACCCAUGUGAGAAGAGGCGAGGAUAUCGAAAGAAAGAAGAGAAACGAGAAGGCGCGAGUU [salish99-SS1-054] | 35 | 54.7 |  | 
UAUCAUUACACGAAGGAUAUCGAUAAUUGAACAUGAGGAUCACCCAUGUGACAUAUCUUACAGUUCGAGAAGGUCGAGGGUGAAG [JR_SS002_Sub706] | 28.9 | 52 |  | 
AAAAAACAUGAGGAUCACCCAUGUAAUAAAACGUCAGGAUAUUGAUUUUAUUAUUUAUUGCAAGAAGGGACAAAAA [Same State 1 - Omei 2] | 20.4 | 40.3 |  | 
GAAAUAAAAACACAGGAUAUCCAAAAGAAAACAUGAGGAUCACCCAUGUAAAGAAAAUAAAAAUGGGAGAAGGGUGAAAUAAAAA [Mat - Same State 2 - JL mod - D27] | 30.4 | 33.8 |  | 
AAUAUAUUAUUUAAGGAUAUCAUAGGAAACACAUGAGGAUCACCCAUGUGGGAGACUUGGACGGGUGAGAAGGUGGAUAAUAUAU [Samwise Clockwise 37 - Jieux - Same State 2] | 19.2 | 20.7 |  | 
AUAAAUAAAAUAGAGGAUAUCCAAAACAAAACAUGAGGAUCACCCAUGUAAAAGAAAAUAAAAUGGGAGAAGGCUACAAAUAAAU [SS2 M 3] | 20.1 | 30.5 |  | 
CCUGGCUUAGGAUAUACAGGAACCGGGAACCCGGAAGUGAAACAUGAGGAUCACCCAUGUAGAAGGAAGAAAGC [Leusanzaus] |  |  | 19.1 | 23.9
AAAAAUUGAGGAUAUACAUGAGGAUCACCCAUGUUAGACCUAAAAAAAGGGAAAGAAAGUAGAAGGCAAUAAAA [Ex 3 May 28] |  |  | 18.8 | 14.6
AAAGGUGCAGGAUAUGCGUGGAAAAAGUGUAUUCAAAAAAAACAUGAGGAUCACCCAUGUAGAAGGGUACCAAA [MS2 Riboswitches On Chip Exclusion 2 wbt2] |  |  | 165 | 55.7
AAACCACAUGAGGAUCACCCAUGUUAGGAUAUGCUAUGGAAAAUAAAAAUAAAACAUAGCAGAAGGGACAAAAA [Denovo 7] |  |  | 18.7 | 19.3
AACUGACAUGAGGAUCACCCAUGUCAGGAUAUGCUUCAUAAAAAGAAAUAAAAAUGAUGCAGAAGGGAUAUGGG [Design 34 :P Sub-opt 10] |  |  | 37.1 | 24.6
CUCAAGUCAGGAUAUUAAAGAAAAGAAGAGAAAGAAAAGAAUAAGAAGGGACAUGAGGAUCACCCAUGUAAGAA [EteRNA is fun!] |  |  | 30.9 | 57.3
AAGAAGGAAGGAUAUACAUGAGGAUCACCCAUGUAAAAGAAAGAAAGGGAAAAGAAAAGUAGAAGGUCCAAGAA [Aakheperre Setepenre Osorkon] |  |  | 38.7 | 25.4
GGAUGCCAAGGAUAUACAUGAGGAUCACCCAUGUGAGAGAAAAAAGUGAGAAAGAAAAGUAGAAGGUGGUGUCG [salish99-ex3-92] |  |  | 65.2 | 33.1
AAGAACGGAGGAUAUACAUGAAAGAAAGAAAAGAAAAGAAAACAUGAGGAUCACCCAUGUAGAAGGCCGAAGAA [EteRNA is fun!] |  |  | 53.3 | 23.4
CUCUAGUGAGGAUAUCCAAGAAAAGAAGAGAAAGAAAAGAAGGAGAAGGCACAUGAGGAUCACCCAUGUAAGAA [EteRNA is fun!] |  |  | 35.8 | 44.1
AGCUAGUGAGGAUAUACGAACAUGUCAAAAGACGUGAAGAAACAUGAGGAUCACCCAUGUAGAAGGCACUAGCA [Mat - Exclusion 2 - JL-Eli mod - D55] |  |  | 14.9 | 15.5
AACAGGUGAGGAUAUCGAACAACAACAACAACAACAACAAACGAGAAGGCACAUGAGGAUCACCCAUGUAAGAA [Exclusion 4C] |  |  | 16.6 | 19.6

Sequence | apparent KD of MS2 coat protein (MS2 coat protein [1]) [nM] | apparent KD of MS2 coat protein (MS2 coat protein [2]) [nM] | apparent KD of MS2 coat protein (MS2 coat protein [3]) [nM] | apparent KD of MS2 coat protein (MS2 coat protein [4]) [nM]
UCGUGGUCAGGAUAUACAUGAGGAUCACCCAUGUAAAAGAACACAAAGGAGAGACGACGUAGAAGGGACAAAUA [Erqugere] |  |  | 42.1 | 43.7
AGUAGUACAGGAUAUACAUGAGGAUCACCCAUGUGAGAAUUAAGUGGCGUACCACAAAGUAGAAGGGUACUACA [Mat - Exclusion 3 - JL mod - D38] |  |  | 211 | 40.1
AGUUGGCGAGGAUAUACAUGAGGAUCACCCAUGUAAGAGAAAAAAAGGAGAAAAAAAAGUAGAAGGCGCUGACA [Mat - Exclusion 3 - Lego mod - D45] |  |  | 41.9 | 35.4
AAAAAACAUGAGGAUCACCCAUGUGAGGAUAUGACGUAAAUAAAGAAAGAAGAAAUCGUCAGAAGGCACACCUA [Disincluded 2 (MS2 Riboswitches)] |  |  | 45.7 | 25.7
AAAAAGUGAGGAUAUACAUGAGGAUCACCCAUGUGAAAUCGGAAAAAAAACGAAAAAAGUAGAAGGCACAAAAA [Fiskers Exclusion 3 D3] |  |  | 22.1 | 19.1
CUCAAGUUAGGAUAUGAAAGAAAAGAAGAGAAAGAAAAGAAUCAGAAGGAACAUGAGGAUCACCCAUGUAAGAA [EteRNA is fun!] |  |  | 19.5 | 29.7
AAGAAUAGAGGAUAUACAAGGAAGAAAGAAAAGAAAAGAAAACAUGAGGAUCACCCAUGUAGAAGGCUAUAGAA [EteRNA is fun!] |  |  | 26.2 | 30.9
AAGAGUAGAGGAUAUACAUAAAAAGAGUCGAAAGACUCGGGACAUGAGGAUCACCCAUGUAGAAGGCUACUCAA [Hyphema Seclusion Mod 62% 4] |  |  | 406 | 98.6
UAAAGACAUGAGGAUCACCCAUGUGAGGAUAUCGGAGAUAACGGAACAUCAAGUUCGGCGAGAAGGCGCAGGAA [JR_Exc001_Sub405] |  |  | 38 | 33.4
ACUAAUGAAGGAUAUACAAACAAAAAAAAAACAACAAACAAACAUGAGGAUCACCCAUGUAGAAGGUCAAAAAU [JR_Exc002_Sub1202] |  |  | 17.8 | 22.2
CCAGAUGCAGGAUAUACAUGAGGAUCACCCAUGUGGCACACACCCACCCACAGCACCCGUAGAAGGGCAGCACG [Halfast on Cytosine - Jieux - Exclusion 3] |  |  | 25.9 | 27
AGGAGACAUGAGGAUCACCCAUGUUAGGAUAUGAACGAAAUAAAAUAAAAAUAAAAGUUCAGAAGGAACGAAAA [Mat - Exclusion 1 - Eli mod - D10] |  |  | 56.6 | 34.6
AAAAAAGCAGGAUAUACGAACAUGUCAAAAGACGUGAAGGGACAUGAGGAUCACCCAUGUAGAAGGGUUAAAAA [JL Stem Breaker 5] |  |  | 53.6 | 198
AACAGUACAGGAUAUACAUGAGGAUCACCCAUGUGAGAAACCAGUGGCGUACCACAAAGUAGAAGGGUACUGGA [Moding Maslow Revisited (73) 28] |  |  | 185 | 42.4
AAAAAGAUAGGAUAUACAUGAAAAAAAAAAAAAAAAAAAAGACAUGAGGAUCACCCAUGUAGAAGGGUCAAAAA [water's exclusion 2 2nd] |  |  | 42.1 | 50.3
AACAGUACAGGAUAUACAUGAGGAUCACCCAUGUAAAGGGAAAGUGGCGUACCACAAAGUAGAAGGGUACUGGA [Moding Maslow revisited (73) 5] |  |  | 175 | 40.1
AAAUAGUUAGGAUAUACAUGAGGAUCACCCAUGUGCACUUAUGGAGAAUAGUGUAAUGGUAGAAGGGACUAAAA [EX2 Malc#23] |  |  | 94.6 | 82.1
AGAAAACAUGAGGAUCACCCAUGUGAGGAUAUCUAAAAGAAAAGAAAAGAAAGAAGAAGGAGAAGGCACAAGAA [Sanakhte] |  |  | 29.4 | 37.4
ACGUACUCAGGAUAUACGAACAUGUCAAAAGACGUGAAGGGACAUGAGGAUCACCCAUGUAGAAGGGAGUACGA [Mat - Exclusion 2 - JL mod - D6] |  |  | 148 | 33.6
UCCUCACAUGAGGAUCACCCAUGUGAGGAUAUCUGAAAAAAAAAAAAAAAAAAAAAUCAGAGAAGGCACAUGGG [Design 11: Super Stable Short Helix 1] |  |  | 4.55 | 37.1
CAGUACUGAGGAUAUACAUGAGGAUCACCCAUGUGGUCAAGCUAGGAAACUAGCAAAUGUAGAAGGCAGUACUG [Ex3: 812] |  |  | 35.6 | 80.9
